Measured values from patent US20210300999A1.

What was measured:
Conditions in all cases: remark: other sources report otherwise
[1] = biological target: SARS-CoV Spike trimer (Table A) (SARS-CoV), P59594; assay: ELISA, purified IgG
[2] = biological target: SARS-CoV-2 RBD (Table A) (SARS-CoV-2), P0DTC2; assay: ELISA, purified IgG
[3] = biological target: SARS-CoV-2 S receptor-binding domain (SRBD), residues 319-541 (SARS-CoV-2), P0DTC2; assay: ELISA on coated antigen

B1: COV2-2391 (antibody, V domains shown)
VH: QVQLVQSGAEVKKPGASVKVSCKASGYTFGSFDINWVRQATGQGLEWMGRMNSNSGNTAYAQKFQGRVTMTRDTSTNTAYMELSSLRSEDTAMYYCARMRSGWPTHGRPDDFWGRGTLVTVSS
VL: QSVLTQAPSASGTPGQRVTISCSGSNSNIGSYTINWYQQLPGTAPKLLIYGNDQRTSGVPDRFSGSKFGTSASLAISGLQSEDENNYYCAVWDDSLNGLVFGGGTKLTVL
[1]
  ELISA OD 450 nm: 0.1 OD 450 nm
[2]
  ELISA OD 450 nm: 3.65 OD 450 nm

B2: COV2-2096 (antibody, V domains shown)
VH: QVQLVQSGAEVKKPGASVKVSCKASGYTFGSFDINWVRQATGQGLEWMGRMNSNSGNTAYAQKFQGRVTMTRDTSTNTAYMELSSLRSEDTAMYYCARMRSGWPTHGRPDDFWGRGTLVTVSS
VL: QSVLTQAPSASGTPGQRVTISCSGSNSNIGSYTINWYQQLPGTAPKLLIYGNDQRTSGVPDRFSGSKFGTSASLAISGLQSEDENNYYCAVWDDSLNGLVFGGGTKLTVL
[3]
  EC50: 1 ng/mL
[1]
  ELISA OD 450 nm: 0.11 OD 450 nm
[2]
  ELISA OD 450 nm: 4.3 OD 450 nm

B3: COV2-2130 (antibody, V domains shown)
VH: EVQLVESGGGLVKPGGSLRLSCAASGFTFRDVWMSWVRQAPGKGLEWVGRIKSKIDGGTTDYAAPVKGRFTISRDDSKNTLYLQMNSLKTEDTAVYYCTTAGSYYYDTVGPGLPEGKFDYWGQGTLVTVSS
VL: not shown
[1]
  ELISA OD 450 nm: 0.1 OD 450 nm

B4: COV2-2952 (antibody, V domains shown)
VH: EVQLVESGGGLVQPGGSLRLSCAASGLTVRSNYMTWVRQTPGKGLEWVSVIYSGGSTFYADSVKGRFTISRDNSKNTVYLQMNSLRAEDTAVYYCARDLVTYGLDVWGQGTTVTVSS
VL: DIQLTQSPSFLSASVGDRVTITCRASQGISNYLAWYQQKPGTAPNLLIYAASTLQSGVPSRFSGSGSGTEFTLTISSLQPEDFATYYCQLLNSHPLTFGQGTRLEIK
[1]
  ELISA OD 450 nm: 0.15 OD 450 nm
[2]
  ELISA OD 450 nm: 3.55 OD 450 nm

B5: COV2-2165 (antibody, V domains shown)
VH: EVQLVESGGGLVQPGGSLRLSCAASGLTVRSNYMTWVRQTPGKGLEWVSVIYSGGSTFYADSVKGRFTISRDNSKNTVYLQMNSLRAEDTAVYYCARDLVTYGLDVWGQGTTVTVSS
VL: DIQLTQSPSFLSASVGDRVTITCRASQGISNYLAWYQQKPGTAPNLLIYAASTLQSGVPSRFSGSGSGTEFTLTISSLQPEDFATYYCQLLNSHPLTFGQGTRLEIK
[3]
  EC50: 0.6 ng/mL
[1]
  ELISA OD 450 nm: 0.17 OD 450 nm
[2]
  ELISA OD 450 nm: 4.2 OD 450 nm
